# Measured values published in a protein production outcome set (Wang et al. 2014).
# Assay: label from the status in PepcDB records
row,Sequence,protein production
1,MTEDERFAWLQLAFTPYIGAESFLLLMRSFGSAQNALSAPAEQVAPAVRHKHALEAWRNAEKRALARQAAEAALEWEMRDGCRLMLLQDEDFPEMLTQGLTAPPVLFLRGNVRLLHKPSAAIVGSRHATPQAMRIAKDFGRALGGKGIPTVSGMASGIDTAAHQGALEAEGGTVAVWGTGIDRIYPPANKNLAYEIAEKGLIVSEFPIGTRPYAGNFPRRNRLIAALSQVTLVVEAALESGSLITAGLAAEMGREVMAVPGSIDNPHSKGCHKLIKDGAKLTECLDDILNECPGLLQNTGASSYSINKDTPDTGRRAVQTAYAPPPAAKMPSEGAAGGTAVGGILDKMGFDPVHPDVLAGQLAMPAADLYAALLELELDGSVAAMPGGRYQRIRT,failed
2,MTEEFNESMINDIKEGDKVTGEVQQVEDKQVVVHINGGKFNGIIPISQLSTHHIENPSEVVKVGDEVEAYVTKIEFDEENDTGAYILSKRQLETEKSYEYLQEKLDNDEVIEAEVTEVVKGGLVVDVGQRGFVPASLISTDFIEDFSVFDGQTIRIKVEELDPENNRVILSRKAVEQLENDAKKASILDSLNEGDVIDGKVARLTNFGAFINIGGVDGLVHVSELSHGTCSNTRRSCVSRLEHHHHHH,not failed
3,MTEEQVQHWFDMFGSLGYIAGFLLPFIEAFIPILPIIVFIIVNVNAFGWFIGTVLAWAGTVAGSYIVFLFFRRLNNTKYMKKVQQRTSVQRLIHFIDRRGVIPIFILMCFPFTPSALVNIVASMSHIKAHAYLTVLIISKFIMIGLVGWLGNDITTLFSNPTRLITIVVVIIIVWFVGRKIEKHFMSSSEE,failed
4,MTEGGRVSNTSRVTRRTGLRTAAAVAAALPLLSASPASASRNRGRRLDVMTFNLRFASASEPHSWAVRRPVMRELLRRERPHVIGTQEGLYQQVRDIEADLGPHYDWIGTGRAGGSRDEFMAVFYDTRRLAPLEYDHFWLSDTPDVIGSNTWGGGSIRMVTRVRFRDLADGDRPFHFLNTHLDNASQYARARAAALIADRIAGLDRSQPLVVTGDFNAAAHKNAVYETMLGAGLVDTWDTAAERGKLYGTFHGYKPLVPDGDRIDWILASPGVAAHCASINAFSSNGQFPSDHLPVQASLRLA,failed
5,MTELVQQLALLDALLSNWDGVLVRMGAPDVLRDEALAALAVKLSSAESPDDLDLLLDDLFDLVEDTPAYDYVRGLIARARLDTGTVAKTRGGYAGELVSDDEKSLLFGASRLAGRALGNAVSADVEPCQVEVFFATNRKSSDASDLQFTGEHDAGGYTCGVAHVTIPVGVHRAGVLEGKRWWHLLREKDDSRRYVVLGSVEKLAEDLFTTRIVEGAPECRDLLVFLHGFNVTFEDAARQAAQFAFDLQFQGRVVLYSWPSLGSLAGYCADEERAFLSNGRFAGFLGMLEDGPWDKVHILAHSMGNRVMLYGLSGNSWPNGRISQVVFAAADVYVETFRELFPKIREKAALYTSYTSKKDRALLISGILHKAKRIGISRGEPFVMDGLETIDASKVDNGFPGHGYFAEETKLIEDISQLLGKGLSAGRRKLYQPPSKAYWDFR,failed
6,MTENNQTAPNPESLDGLSYEEAREQLVAVVGRLEAGGASLEESLALWERGEALAKRCEDWLEGARKRLATARDASSDGGTPA,failed
7,MTENSRKTATELFEFLDGLGISHTTKQHEPVFTVAESQSLRDLIPGGHTKNLFVKDKKDQYFVLTVEENAVVDLKSVHKTIGAASRVSFGRPEKMLEYLGVVPGSVTVFGAINDTARQVTFVLDSDLLENELVNGHPLSNDQTTTIASKDLIRFLEATGHAPLVLKVSE,not failed
8,MTENTNFKSGYSEVNGLKMYYEIHGEGKPLVLIHGGGSTIKTSFGNILPLLLKSRQIIVMELQAHGHTGDRETDLTFEQDADDVAKLLENLQITKADFLGFSNGGHTTIEIALRHKKIVDKILLASAFYKRDAVVPEFWDGFDSATLEMMPKVLQEGYLKANDDEKGLLNMFKKDVQKMKDFKGWTDEQMKSITAKTLIINGNNDVGSIEHAVEMYRILPNCELAILPGGHGTYLGAIESLPNGEWTMKYVAELIEEFFDKH,failed
9,MTEQHSHQFERGTDGPKVILVGVDGSDSSLHAAAYAAGLARRQHALLAVVYVQPVMAAGAALGVPVADTTDEIAADLVQYIRDATERVKDIFEVRWEFHTFRGDPYNGLVTAADELKADAVVVGASEQAGHRIVGSVAVRLVKAGRWPVTVVP,not failed
10,MTETDKKQEQENHAECEDKPKPCCVCKPEKEERDTCILFNGQDSEKCKEFIEKYKECMKGYGFEVPSAN,not failed
11,MTETKTIRFLSIIGCLLAGMAASCSSRQVAPNEEGISVQKMTGFPEGEPGFSLGVSACYAGIYQGELLIAGGCNFPETPAAEGGKKKFYQGIYAADASADSVFVWRKVGQLPVAAAYGVSVSTPRGIVCVGGSNENGSLSTVYRLSLSDDKQAVIVDTLPSLPCTMDNMSGSVVDYTLFVAGGNVNGKPSNGLYCLNLGNPETGWQQLPDFPGAPRVQPVCVGQRKENETLLYLWGGFSGAFDGRSATLSTDGYCYSPSLQQWQPVSTPIGSDSVPVALGGGAGIALTDSLILCTGGVNKDIFLSALQREEMMKAAVTGGNQAAVDSLKSEAKTYMLHPAEWYRFNDRILIYNTRRDKWEEAVRSQDVARAGAALTTGQGQTFFNINGELKPGIRTPEIAKIMID,failed
12,MTEYWVSQGNKWCEFCKIWIQNNPTSIRNHDLGKRHRECVDKKLTDMRERSAAKDKELKKNEKLLQQIEAKATRSYQKDIATAQQVAKANGAPEDGTSDWMLDSASGYYYNQTNGLHYDSQSGFYYSDSIGHWVTQDEAYAAVKTSSGTKVPLVKKPVSSSGAGPSVGKPPGRLVTASLNPKRAVKGAASSVDLGNNKRKRQDEKPKKVSAEEKAALKAREAARKRVEDREKPLLGLYNRPF,failed
13,MTFGQSIGTCFAKYITFSGRASRPEYWYFFLFLLLGSIAATMLDALLFDAVTTTVETSDTSTSARIENTGPIAPIFSLAVFLPHLAVAFRRMHDTGRSGIYAILPFLLMLCAVLVLVFGVGIASSFAAGGSLDLLFTRATLLLLIPTLAVLFISPLLVLWWLTRPSQPGTNQYGPNPVRAVAS,failed
14,MTFGSLFRNQTRTVVKGHIFNLPNSLSILRILLIPWFIYYLDAGQTHIALIIMVVALLSDWFDGQMARWTNEVSDMGKILDPLADKLCLASVALYYLWKGELPVWFVVFVVFRDLVIFLGAAWIRHRHNVLTTSLWPGKWAVGFVSMMFISMVWPLPVFRQWPVKEFFMYLSAATLFYSFVEYCIRFYKIQKGAEFKA,failed
15,MTGALVSSEMMARAAAAAGLSDEADRPGPAPLASPSYLALESASILTDGGVFLKVMHPEMRQDFDLGAAMALARQAGEAGIGPRVLWADPAQGAIAMEALTEAGGWRRAMQVDLQEAPVLGAAMSALKALHATPALSSRFDPFAQIDGLIADYSRLGAPLPEDTGWLRRLIGAAEPVLRTGADLAPCRNDGAASNLMLGPGGAVRLVDYDRAGMNDPLYDVGALLAETTDFEREMQAGFAAYAGAFDEVAFARARLWSFVDDMLHALWSRLKARTSARGGVEWLKYGEWRLMRLRMALNHPQYEQKIRLAGGAA,failed
16,MTGASRARMHQLEREGDRPAKRVNKLLSDQETMIGAVLLGNNLINILASALATQVLTTLIPGPWGVAVATAAMTVLILIFAEVLPKTLAIVRSDDVARALSAPTLFIVRLFGPIIYAIQWIVRRTLRVFGVKLDMAVDVLAAHEEIRGAVDYHHSEGLVETDDRRMLGGVLDLSDMDVSEIMVHRKSMVLLDAGLPARELVDAVLEAQHTRIPLYRDQPDNIVGVLHARDLLKALAECPTGVEGLDIAAILREPWFIPDATNLKDQLNAFLKRKNHFALVVDEYGALQGLVTLEDILEEIVGEIEDEHDTTLDGVRRQGDGSVNVDGHVTVRDLNRAMDWRLPEGEAVTIAGLVIHEAQMIPEPGQTFIFYRHRFQVLRRQRNQITALRISARLDDDSDA,failed
17,MTGFAPQAGLPSHSVQVADHFDGNSPRGSPMSSGGHPVDRNRGLQPQKEAFSGPAAGKPFHPQALSKYSRHYSPEDELSAEAQPIAAYKIVSQSNKQLLAGSVSVTSLSSRTTELATADPFALAPFPSKAGKQKP,failed
18,MTGHIDPTKEVFAQFRANDREGPIHMLNLVRLRPRAAYPDGRETTGAEAYAAYGRDSGPVFERLGGKVVWQGQFELMLIGPQDEHWDHVFIAEYPSVAAFVEMIRDPVYREAVKHRQAAVEDSRLIRLKPLKPGKGFGEIPT,not failed
19,MTGKPLTDYVALGFTALERGDCQEAVNIFRRAQETGPTARSFVGLGLAFHRLGDPPAARWAFAKALDLEPADRDANEWIERIGRPAVPARTSGGRGCRFRAGEDFLQIKENGSWRRFFIKGINLGLGLPGYFPGEYPIHRETYRRWFRLMGELGVNSLRVYAVQSPGFYEALADHNEQGGRLFLFQGIWLELPEDGDFRGRDFLAYAHRQIREAVDSVCGSADFPERPGLPHGSYRRDVSPWTAAYVVGREWESCAVRAFNGRYGRKRGGFAGQFLKVDDGLPFEQWAAEICDYLQSYEHATYDCTHPVTTINWPTLDPLTHPSESTYEEGLIRQGFQVNVDVCNEDEDVETFDPALIASRQGAGFFATYHVYPYYPDFLNNDFLDVENPYREYLKRLRRHHGRQPVVIAEFGVPSSREATHWQRDGWHHGGHDEVSQGKINGYMMEAIRDAGLAGGMLFSWFDEWFKRNWVFLPYELPAERNPFWFNHQDAEQTYGLMAAYPGYPGKVVTLAGRREEWRDASLLQEKRGGAPLHRFGDGRDGARTLVRLSARHDEGFFYLCLETAEPVDFSAAHYLIGLNTCGAKAGETLLPFDTNARSPLGLTFLIHLAGEGASRILVSRFYDKYLNEGLPVRPVPSDTGEWVVMQNITNHRRISKDGTRFYPSRVFSMSGLRFGSLDPQSPRFDSLADWHVSGTLIELRLPWGLLNITDPSSRQVLWMAEQGGKTHTTDGIAAIACSYRPSGEGLAARPTGGRTNLADSLPAGLGSDAVRRYQWERWNHPLYHTYLKRSYYLYRDVLDRMPE,failed
20,MTGLINAIPATNKDEYKNVGVYIEHRGDELKRPSIEMIGIGKQLARKVNEKLICVVIGDKVDGIAKEVGEYGCDIVLAAESPELAEYRTMPYAEIIGGYIQEYKPNIFLLAATRNGRDLASRIAVKSRTGITADCTVLDIDENRTLLANRPTYGESTLAEILCRNHRPQMATARPGIFPPAEKEKDHKYEVIKKKVDVDKKLLGKQILKFI,not failed
21,MTGSCLCQGIRYEISGHGLGDIIECHCQRCRKANGTAYATNTPVHVDDFKIVQGEHLLKKYQSTPTTQRCFCSECGSPIMSIKTDTPEYYRLRIGTLDTKIEQKPSMHIFAAHKAEWDTITDDLPQYAERP,failed
22,MTGVLSGMAKTYLEFSDPNGAEHKFYEVTVDGPELTIRYGRIGTDGQRSTKTFPDAAVAQAEADKKIREKRKKGYEDAVMGARQKRTVVRREVTETRSTTRQIAPVLWRFKTRSAAYGIFVDQNTAWVGNDSGEVFALTLSGEVDRSFRLPDGVKCLVSDQFRTFAGCDDGNVYDLSGKLPFMAYEVESKAALLWLDLHGGTLGVSDSGGGVYAFDAESDQQWGHTDDRASMGWMVRVDARGVYYGHSRGVGMFDRESGFPNWHRPTRGSVLFGWQEGNDLYAGTSANLIQRFTKAGEHVQDYQCDGSVLSCAASPGGEFVFAGDSGSAVYCFNRAGERLWKLGTGCASALSMQFAADKLYIVTTNGTLAAIDVSPAAIEAARQGTTPEVRDVKLAAAMPAQAPATELTVTRNASGGVLLRGVQEGSKVRIRPDDSRFHKDWNVQFPRNLRAADGLYVVDDLEDAGGFYRVVGDLRRLENLEHHHHHH,not failed
